The results in this text go back to US20220195021A1 (ANWITA BIOSCIENCES, published 2022).

The target in assay [1] is T1, human serum albumin (human, UniProt P02768 25-609).
T1 construct: The immunogen was rice-expressed HSA (Sigma A9731); also called HSA
Nature of the assay: BLI (OCTET RED96), VHH-IgG1-Fc on protein A biosensor, albumin in solution, pH 7.4; grade legend in paragraph 477. Here is the method:
(§1) The VHH anti-albumin antibodies were evaluated for their ability to interact with human, monkey, and mouse serum albumins at different pH values, e.g., pH 7.4 or pH 5.5 to simulate the pH of an acidified endosome. Briefly, a VHH anti-albumin antibody was fused onto a human IgG1-Fc. The expressed protein was then loaded onto a protein A biosensor (OCTET® RED96). The biosensor was in turn dipped into a solution containing a human, monkey, or mouse serum at three or more different concentrations, e.g., 50, 100, or 200 nM, or 100, 200, or 400 nM. Primary experimental data was analyzed with global fitting to determine a dissociation constant (KD). The results are summarized in Table 7 (pH 5.5) and Table 8 (pH 7.4), wherein A represents a value no greater than 10 nM, B represents a value greater than 10 nM but no greater than 100 nM, and C represents a value greater than 100 nM but no greater than 500 nM.

Assay [2] concerns the target T2, mouse serum albumin (mouse, UniProt P07724 25-608).
T2 construct: also called MuSA
Nature of the assay: BLI (OCTET RED96), VHH-IgG1-Fc on protein A biosensor, pH 7.4. On the procedure:
as §1

Assay [3] addresses T3, monkey serum albumin (monkey (cynomolgus monkey in paragraph 472), UniProt A2V9Z4 25-608).
T3 construct: also called cynomolgus monkey serum albumin; CySA
Described as above. On the procedure:
as §1

The target in assay [4] is T1, human serum albumin. The description is as above. On the procedure:
as §1

In assay [5] the target is T3, monkey serum albumin. The assay is described as follows: BLI (OCTET RED96), VHH-IgG1-Fc on protein A biosensor, albumin in solution, pH 7.4; grade legend in paragraph 477. Here is the method:
as §1

Assay [6] addresses T1, human serum albumin. Nature of the assay: BLI (OCTET RED96), VHH-IgG1-Fc on protein A biosensor, albumin in solution, pH 5.5; grade legend in paragraph 477. On the procedure: as §1

B1: anti-HSA VHH antibody A9 fused onto a human IgG1-Fc (Fc fusion)
chain: QVQLVESGGGLVQAGGSLRLSCAASGRTFSNDAMGWFRQAPGKERVFVATISWKSSTYYADSVKGRFTISRDHAKNTVYLQMNNLKPEDTAVYYCVADPYGLGFNPSDYDYWGQGTQVTVSS
notes: Llama VHH; also called Ab A9; not shown: human IgG1 Fc
For the molecule B1, in assay [1], the Kd (in general, the equilibrium constant for the complex coming apart) is no more than 0.01 µM. Moreover, the binding result in assay [2] is “no binding”.

B2: anti-HSA VHH antibody A17 fused onto a human IgG1-Fc (Fc fusion)
chain: QVQLVESGGELVQAGGSLRLSCVVSGRTFRTRTMGWFRQAPGKEREYVAHISANGPITDYSDSVKGRFAISRDNAKNTVNLQMNSLKPEDTAVYYCALHNGIGVRTVPSQYDSWGQGTQVTVSS
notes: Llama VHH; also called Ab A17; not shown: human IgG1 Fc
With B2, the binding result in assay [3] and in assay [2] was “no binding” each time.

B3: anti-HSA VHH antibody A18 fused onto a human IgG1-Fc (Fc fusion)
chain: QEQLVESGGGLVQAGGSLRLSCAASTRTINIYAMAWFRQAPGKEREFVAAVTWSGLTRDYADSVKGRFTISRDNPKNTLYLQMNSLQPEDTAVYYCAAGRYSTGTHDYDYWGQGTQVTVSS
notes: Llama VHH; also called Ab A18; not shown: human IgG1 Fc
Take B3: the binding result in assay [3], in assay [4] and in assay [2] was “no binding” in each case.

B4: anti-HSA VHH antibody A10 fused onto a human IgG1-Fc (Fc fusion)
chain: QVQLVESGGGLVQAGGSLRLSCLASGGTFSSYAMGWFRQAPGKEREFVAAISWKSSTYYTDSVKGRFTISRDNAKNTVYLQMNSLTPEDTAVYYCAADPTGSYDQPWYDYWGQGTQVTVSS
notes: Llama VHH; also called Ab A10; not shown: human IgG1 Fc
Regarding B4, in assay [2], the binding result is “no binding”.

B5: anti-HSA VHH antibody A3 fused onto a human IgG1-Fc (Fc fusion)
chain: QVQLVESGGGLVQAGGSLRLSCAASGRTFSIYDMGWFRQAPGKEREFVAATNLRGVSTRYADSVKGRFTISGDNAKNTVSLQMNSLIPEDTAVYYCAAAVSNWLAKDPSAYSYWGQGTQVTVSS
notes: Llama VHH; also called Ab A3; not shown: human IgG1 Fc
B5 returned a Kd in assay [1] of no more than 0.01 µM. Moreover, in assay [2], the binding result is “no binding”.

B6: anti-HSA VHH antibody A15 fused onto a human IgG1-Fc (Fc fusion)
chain: QVQLVESGGGLVQPGGSLRLSCAASGFAFRGFGMSWVRQAPGKGFEWVSSINNGGSDTRYADSVKGRFTISRDNARNTLYLQMNSLKPEDTAVYYCAIGGPGASPSGQGTQVTVSS
notes: Llama VHH; also called Ab A15; not shown: human IgG1 Fc
On to B6, for which the binding result in assay [2] was “no binding”.

B7: anti-HSA VHH antibody A14 fused onto a human IgG1-Fc (Fc fusion)
chain: QVQLVESGGGLVQPGGSLRLSCAASGFTFRGFGMSWVRQAPGKGFEWVSSINSGGEDTRYSDSVKGRFTISRDNARNTLYLQMNSLKPEDTAVYYCAIGGAGATPSGQGTQVTVSS
notes: Llama VHH; also called Ab A14; not shown: human IgG1 Fc
Turning to B7, the binding result in assay [2] was “no binding”.

B8: anti-HSA VHH antibody A12 fused onto a human IgG1-Fc (Fc fusion)
chain: EVQLVESGGGLVQPGGSLRLSCAASGFTFRGFGMSWVRRAPGKEFEWVSSINGGGEDTRYSDSVKGRFTISRDNARNTLYLQMNSLKPEDSAVYYCAIGGPGATPSGPGTQVTVSS
notes: Llama VHH; also called Ab A12; not shown: human IgG1 Fc
Consider B8, for which the binding result in assay [2] is reported as “no binding”.

B9: humanized anti-HSA VHH antibody A20 fused onto a human IgG1-Fc (Fc fusion)
chain: QVQLVESGGGVVQPGGSLRLSCAASGFAFRGFGMSWVRQAPGKGLEWVSSINNGGSDTYYADSVKGRFTISRDNSKNTLYLQMNSLRAEDTAVYYCAIGGPGASPSGQGTQVTVSS
notes: also called Ab A20; anti-HSA A20; not shown: human IgG1 Fc
Turning to B9, the binding result in assay [2] was “no binding”.

B10: anti-HSA VHH antibody A13 fused onto a human IgG1-Fc (Fc fusion)
chain: QVQLVESGGGSVQPGGSLRLSCAASGRNFNPMGWFRQAPGKQRESVAAIGTDGSTKYADSVKGRFTISRDNGKNTVYLQMNSLKSEDTAVYYCNVGGWGISWFPWGRGTQVSVSS
notes: Llama VHH; also called Ab A13; not shown: human IgG1 Fc
As for B10, the binding result in assay [2] is given as “no binding”.

B11: anti-HSA VHH antibody A16 fused onto a human IgG1-Fc (Fc fusion)
chain: QVQLVESGGGLVQAGGTLRLSCTASGSTFRGNGMAWHRQAPGKEREFVAYMGMTDRITYAESVKGRFTLSRDDAKNRVYLHMNNLEVEDTAVYYCTAFGSWGQGTQVTVSS
notes: Llama VHH; also called Ab A16; not shown: human IgG1 Fc
B11: the binding result in assay [3] and in assay [2] was “no binding” in each case.

B12: anti-HSA VHH antibody A1 fused onto a human IgG1-Fc (Fc fusion)
chain: QVQLVESGGGLVQPGGSLRLSCAASGRIFSTYAMGWFRQPPGKEREFVASINRSGDSTYYADSVKGRFTISRDNAKNTGYLQMSSLKPEDTAVYYCAADSDGIGWFNSFEYDYWGRGTQVTVSS
notes: Llama VHH; also called Ab A1; not shown: human IgG1 Fc
B12: the Kd in assay [5] and in assay [1] was no more than 0.01 µM each time. Besides, the binding result in assay [2] is “no binding”.

B13: anti-HSA VHH antibody A4 fused onto a human IgG1-Fc (Fc fusion)
chain: QVQLVESGGGLVQPGGSLRLSCAASGRIFSTYAMGWFRQPPGKEREFVASINRSGDSTYYADSVKGRFTISRDDAKNMGYLQMSSLKPEDTAVYYCAADSDGIGWFNSFEYDYWGRGTQVTVSS
notes: Llama VHH; also called Ab A4; not shown: human IgG1 Fc
As for B13, the Kd in assay [5] is no more than 0.01 µM. Moreover, in assay [2], the binding result is “no binding”.

B14: anti-HSA VHH antibody A8 fused onto a human IgG1-Fc (Fc fusion)
chain: QVQLVESGGGLVQPGGSLRLSCAASGSTWSINTLAWYRQAPGKQRDLVARISSGGSTHYADSVKGRFTVSRDNAENTLVLQMNSLKPEDTAVYYCYAQSTWYPPSWGQGTQVTVSS
notes: Llama VHH; also called Ab A8; not shown: human IgG1 Fc
As for B14, the Kd in assay [6] is no more than 0.01 µM.

B15: humanized anti-HSA VHH antibody A19 fused onto a human IgG1-Fc (Fc fusion)
chain: EVQLVESGGGLVQPGGSLRLSCAASGSTWSINTLAWYRQAPGKQRDLVARISSGGSTYYADSVKGRFTISRDNSKNTLYLQMNSLRAEDTAVYYCYAQSTWYPPSWGQGTLVTVSS
notes: also called Ab A19; anti-HSA A19; not shown: human IgG1 Fc
With B15, in assay [5], the Kd was no more than 0.01 µM.

B16: anti-HSA VHH antibody A11 fused onto a human IgG1-Fc (Fc fusion)
chain: QVQVVESGGGLVQPGGSLRLSCAASGMSSANVMGWYRQVPGNQRELVARITSSGRTMYSDSVLGRFTISRGGAGNTADLQMNMLKPEDTAIYICNIRILGSFDPDSGYWGQGTQVTVSS
notes: Llama VHH; also called Ab A11; not shown: human IgG1 Fc
For the molecule B16, the binding result in assay [3], in assay [4] and in assay [2] was “no binding” in each case.

B17: anti-HSA VHH antibody A2 fused onto a human IgG1-Fc (Fc fusion)
chain: QVQLVESGGGLVQAGGSLRLSCAASGRSVSLYHVGWFRHTPGKEREFVAATAWHDGSTSYADSVKGRFTISRNNAKNTVYLQMNSLQPEDTAVYYCAGEAKLGGIYSRWRDYEYWGQGTQVTVSS
notes: Llama VHH; also called Ab A2; not shown: human IgG1 Fc
B17: the Kd in assay [5] and in assay [1] was no more than 0.01 µM each time. In addition, the binding result in assay [2] is listed as “no binding”.

B18: anti-HSA VHH antibody A6 fused onto a human IgG1-Fc (Fc fusion)
chain: QVQLVESGGGLVQAGGSLRLSCAASGRSVSLYHVGWFRHTPGKEREFVAATAWHDGSTSYADSVKGRFTISRNNAKNTVYLQMNSLQPEDTAVYYCAGEAKLGGIYSRWRDYEYWGQGTQVTVSS
notes: Llama VHH; also called Ab A6; not shown: human IgG1 Fc
For B18, the dissociation constant Kd in assay [5] and in assay [1] was no more than 0.01 µM in each case. Further, the binding result in assay [2] is listed as “no binding”.

B19: anti-HSA VHH antibody A7 fused onto a human IgG1-Fc (Fc fusion)
chain: QVQLVESGGGLVQAGGSLRLSCAASGRSVSLYHVGWFRHTPGKEREFVAATAWHDGSTSYADSVKGRFTISRDSAKNTVFLQMSSLQPEDTAVYYCAADPGGSSWSQPWYDYWGQGTQVTVSS
notes: Llama VHH; also called Ab A7; not shown: human IgG1 Fc
As to B19, in assay [2], the binding result is given as “no binding”.
